Test results from article PMC2813881, “The Mrs1 Splicing Factor Binds the bI3 Group I Intron at Each of Two Tetraloop-Receptor Motifs”.

Key:
Mrs1 [1] = molecular target: T1, Mrs1 (yeast, UniProt P07266 1-363); experiment: filter binding; settings: RNA folded in its own buffer (composition not given), 30 min at 37 C with Mrs1, SL and B5 at 8 mM MgCl2
T1 sequence: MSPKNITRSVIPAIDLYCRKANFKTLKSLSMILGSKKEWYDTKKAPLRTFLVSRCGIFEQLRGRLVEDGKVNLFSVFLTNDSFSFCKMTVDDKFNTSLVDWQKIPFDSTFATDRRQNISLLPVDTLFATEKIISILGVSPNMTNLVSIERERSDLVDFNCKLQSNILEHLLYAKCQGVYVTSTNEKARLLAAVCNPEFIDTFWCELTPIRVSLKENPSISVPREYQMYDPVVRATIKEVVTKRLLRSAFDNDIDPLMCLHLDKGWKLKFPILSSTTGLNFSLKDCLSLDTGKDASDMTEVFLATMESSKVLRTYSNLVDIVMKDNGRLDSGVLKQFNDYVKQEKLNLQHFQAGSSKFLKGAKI

Mrs1 [2] = molecular target: T1, Mrs1; experiment: filter binding; 8 mM MgCl2; Hill ~1.5; Filter partitioning (nitrocellulose/Hybond), RNA folded in its own buffer (composition not given), 30 min at 37 C with Mrs1; SL and B5 at 8 mM MgCl2; RNA ~0.5 nM (large) or ~0.1 nM (SL, B5); settings: protein: recombinant, chain copies: 2, label: internal 32P

Azoarcus group I intron RNA
K half (Mrs1 [1]; Hill 1.8, Filter partitioning (nitrocellulose/Hybond)): 3 nM

RNase P specificity domain RNA
K half (Mrs1 [1]; Hill 2.0, Filter partitioning (nitrocellulose/Hybond)): 230 nM

bI3 group I intron RNA
K half (Mrs1 [1]; Hill 2.2, Filter partitioning (nitrocellulose/Hybond)): 9.7 nM

B1: SL RNA (structured_RNA)
RNA: GGCUGACGAAGCGGUGCAGUGCUGUUUCAGCACUGCACCGCUUCGUCAGCC
apparent K (half saturation) (Mrs1 [2]; hairpin, 24 bp): 1300 nM

B2: B5 RNA (structured_RNA)
RNA: GGCUGACGAAGCGGUGCAGUGCUGUUUCAGCACUGCACCGAAAAACUUCGUCAGCC
apparent K (half saturation) (Mrs1 [2]; hairpin with 5 nt bulge): ~500 nM
